Substrate in series [1]: CC(C)(C)c1ccc(O)c(O)c1
Briefly: purified protein. As to conditions: diphenolase, 50 mM sodium phosphate pH 6.8, 1 mM SDS, 25 °C, substrate range 0.2–7 mM. It is filed as biochemical, Olea europaea.

Substrate in series [2]: NCCc1ccc(O)cc1
Briefly: purified protein. The settings on record: monophenolase, pH 6.8, 25 °C, substrate range 0.2–7 mM. It is filed as biochemical, Olea europaea.

B1: OePPO3 (Olea europaea subsp. europaea) (protein)
chain: APISAPDVTTCGPADLPQGAAPTNCCPPPTGEILDFKFPPPPTTMRVRPAAHLADEAYIAKFNRAVELMRALPDDDPRSFRQQANVHCAYCDGAYDQVGFPNLELQVHNSWLFFPFHRYYLYFFERILGNLIDDPTFAMPFWNYDAPGGMHLPAIYANQNSSLYDPLRDSAHQPPAFIDLNFSGSDANTGEAQQTSRNLTIMYRQMVSNSKTPRLFFGSPYRRGEDPNPGSGSIENIPHGPVHVWTGDRTQPNFENMGNFYSAGRDPIFFAHHSNIDRMWTLWKTLGGRRQDITDPDFLDASFVFYDENAKMVRVKVRDCLDHTKLGYVYQDVEVPWLRSRPKPRISSVVRKLKKLVRANAADIPSPKDIFPAKLDQVIKVMVKRPKKKRSKKEKDELEEILIIQGIELERDVYAKFDVFINDEDDEESTPENTEFAGSFVNVPHKHKNDKKIKTNLRLSITDILEDLDAEDDQHVLVTLVPKNFGDAITVHGIKIELDD
notes: GST tag cut off with PreScission (pGEX6P.1); E. coli BL21(DE3); about 54 kDa
The Km is the substrate concentration at which the rate is half of its maximum. In general, Vmax refers to the top rate of the reaction or transport when substrate is in excess. B1: in the series “purified protein [1]”, the Km worked out at 800 µM and the maximal velocity (Vmax) came to 130 µmol/min/mg. Further, in the series “purified protein [2]”, the Km was 700 µM and the Vmax came out at 2.7 µmol/min/mg.

These data come from PMC9962951, “Olive Polyphenol Oxidase Gene Family” (International Journal of Molecular Sciences, 2023).
